# Test results published in the DeepSol protein solubility set.
# Experiment: soluble on expression in E. coli; label from the status in PepcDB or PDB records
row,Sequence,soluble on expression in E. coli
1,MSLNVTVHGVPVGSLTREEARAKIESHFAPFLAQPVMLTYSGRTWTPTLAELGAELAIDEAVDKAVAVGRGHDLFTNLQQIGAVWQRGLELPLHLSIDQDALQRYLLDRVAEVERPAVDARLVLHGTTVRVEPSAFGRQVLVNDTLHEIVAALQDLNPDTIALRTRTLEPALRDDAAIVAQDQIAALLAGPITLLIDDRPFVWSLDELARMVRVERIPDPAGDRLVVSIDHELVRARIREIGDATEVKGTYPRLNWNDGRLEIFQEGKPGRRIDEDQVFAAVLDALTKPAEQRTVTVAFREIPPPITAANLDQLGITTLIGVGRSDFTGSAAYRVTNIQAGMRLLHGVLIAPGEEFSFNQTIGRIDRSNGFVEGYAIIQNRTQLEWGGGICQDSTTMFRAAFWAGLPITERWGHSFYISWYDRYAFGPYGDGPGMDATIFTGGPDLKFLNDTGGWLLIQTLVDTHRHLAEVRLYGPDTGRKVLLEGPIITNRTEGHHHHHH,soluble
2,MGSDKIHHHHHHMAMNDNNINTCRYRVDVPYPPVRVVGPNPVYACEMLGNMGDAVSEMSDVTRYFYISVVTKPQYSWISACFRDISIVEMHHLNIFAELALLLGADPRLWSCRDCMQWWSPSYIGYPHGVRPLIAESIQAEEAAIRKYSHQADTICDMNIVAILRRIIQDEMYHLQIFREMYQQV,not soluble
3,AHHHHHHGSNQLEAVREKLRVIRMLRVLKKTYTYEDLSEITGLPVTVLNRYVKGKVLPSVERARELFEKLSPYLNLEEEVKKRLRFDSHGFFDSMSVLSDTNLLALISEDVALKYMKVGVEKILTAATDGIPLAVQIANELGVDVVYAKKKKEVGVERFYEVNYIPSASGSITTLYLPTWALKKGERVLIVDDVVRSGETQRALVELCRQAGAIPVGMFFLISVGDIVERLKEEYNIPVEALVNL,soluble
4,MKELHTSELVEVSGGKFHIFAQGGGNLGKKDMVAVGKIGASYSPNNSGVEFSVSKQFGYVQGLGVQFSKPTFGISKKW,not soluble
5,EFVDPSWNYFDNRVHDIAIMEGQSQTKKWQKWLSQIEKRFGVDRNILLAIWSMESNYGKVLANKDVMRDTIRSLATLAYADQKRAKYAQAQLIAAMTILQNGEITRAQLTGSWAGAMGHTQFIPSSYLAYAIDMDGDGRRDIWTSVPDALATAANLLYMNGWQSKLPWGVEVKLPQGKNLPEDWHSFEQWAKLGVKQANGKHLPSLSERAILKYPDGPEGPIFLVTKNFFVLKRYNNADRYAFAVALLANRIAGHSGL,not soluble
6,MVVSDLKLRDMNEADRHAVGFVGFAAWRAGDAFDASYLDSYVVERVRGEFESFAKSPTGDVVVAEIDGVVVGWGACDAKPHHISDLWVDPNWQGKGIGKALIVHFLDRMRAEGLPLATIDTHARNRAAIGLYERCGFEIVWRGMEWSDIMKVELEKVKLEQKLSP,soluble
7,MAHHHHHHMADRGDARVVHVFVDDLSAVLAEDVHEWLRIIGDIDELKMRYDASRQRSFYWVRFHQSSAARLAVDHLDGERLKNHAIEIHSNVFKKQTAAVATLEGAAGGVQEEKTKLEMNPNLPKNHLMPRDLQMDELLVRAIPEMLETSEQAAEGGELLQRLLELQESYCRAQESLERTTEGIRETDGELTALLRGETTAATDVSGPSSEGFVQGNTPLASARIRNAVPVPLSTCDPAGLLSKLTRHVGPVADYAFSFASNGGSFATVVELFHPDDADFALALLTGRRMVSKSTEKHADAEDALAALVGFGWEAEASVAPLTPPSVPQASFAAHNRVATILRSCRSVA,not soluble
8,RNEHTGELRLGASTTIAQYVLPPLLARFIEKFPQVSLSLFSGNSSEVEKALQEHRIDLALVEGNTRQPNLKYTPFLQDELVAIVHTHSKWMDYDEITLDELKEVPLVLRERGSGTLDVLITALHKHNIKLSDLTIRMHLGSTESIK,not soluble
9,FDASNFKDFSSIASASSSWQNQSGSTMIIQVDSFGNVSGQYVNRAQGTGCQNSPYPLTGRVNGTFIAFSVGWNNSTENCNSATGWTGYAQVNGNNTEIVTSWNLAYEGGSGPAIEQGQDTFQYVPTTENKSLLKD,soluble
10,MGKFSNQKKNRVKNKVAVTVKKAQRMKADAKNAKKDGEVDVEMKEEVVRVRGLAVSSLKKLASGELQNVPKVNEKKIIRKTELPVRENKKILDAPTGKRGTTAQYITKKKAKKMYKKMTHDARDKYRKIQAELAGDGEDDEEGEAEVMEQ,not soluble
11,MKITVLGCGALGQLWLTALCKQGHEVQGWLRVPQPYCSVNLVETDGSIFNESLTANDPDFLATSDLLLVTLKAWQVSDAVKSLASTLPVTTPILLIHNGMGTIEELQNIQQPLLMGTTTHAARRDGNVIIHVANGITHIGPARQQDGDYSYLADILQTVLPDVAWHNNIRAELWRKLAVNCVINPLTAIWNCPNGELRHHPQEIMQICEEVAAVIEREGHHTSAEDLRDYVMQVIDATAENISSMLQDIRALRHTEIDYINGFLLRRARAHGIAVPENTRLFEMVKRKESEYERIGTGLPRPWLEHHHHHH,not soluble
12,MSDNNDRMYELEYPSPEVSGQTAGGPTLIVALQGYADAGHAVESSSSHLMDALDHRLIASFNNDELIDYRSRRPVVVIEHNEVTSMDELNLGLHVVRDNDNKPFLMLSGPEPDLRWGDFSNAVVDLVEKFGVENTICLYAAPMTVPHTRPTVVTAHGNSTDRLKDQVSLDTRMTVPGSASLMLEKLLKDKGKNVSGYTVHVPHYVSASPYPAATLKLLQSIADSADLNLPLLALERDAEKVHRQLMEQTEESSEIQRVVGALEQQYDSELERYRNRHPQAVMPGESELPSGDEIGAEFEKFLADLDDQGGSDHKETPEA,soluble
13,MAHHHHHHMAPPSSSACDPRVYLHERVRQHYLEVLPSRWRAVLFRLAKNTQLRQKNDVIVETHLLSEMQADFDLIHALLDEEHRVYREGVACLCSQASNGKSETERWTASRHLLQGMLSCIAMKEILIAHWKNDLVDISPNTLRVYCHACISHPHVSETDIERLLALYAVS,not soluble
14,MAKATYACVECGYRTPKPLGRCPSCGSWESFQEVAPAPASRRAKPSPLPLLALSQVDEAEERRFSSGLSEVDRVLGGGFVTGEVVLLGGEPGVGKSTLLLEMAKRMPQRVYYVAGEESPAQIKLRAQRLGVKDLLLVRETRLEPLLALLEEDPPEVLFVDSVQTLEAGGSPGSLVAVREATSALVRFAKERGVAVVLVGHVTKEGVVAGPKSVEHAVDATLYLETAGPYRVLRSAKNRFGPVGEIGVFRMEEAGLLEVENPSEAFLKERPLGVPGSAVALALAGERALALEVQALAAKTPFPAPRRVVQGLDGRRVDVVLAVLERRLGLPLANLDVYVNLAGGLKVQDPGLDLAVALAVYSAVVGRPLPVDLALVGEVGLAGEVRRVAVLERRLREGERAGFGRFLHPGNLKRLQEAVEAYLA,soluble
15,SMITIKFDLNRYSCSWGAGGAFGGNRGLRPIPPEKGIFPLDHLHECDAEKKEYLGCLKSSAHKSEQCRHLSKKYLQCRMAKNLMAKQDMAELGFSGVKELDSTEDKNTESIEH,soluble
16,MKTETPSVKIVAITADEAGQRIDNFLRTQLKGVPKSMIYRILRKGEVRVNKKRIKPEYKLEAGDEVRIPPVRVAEREEEAVSPHLQKVAALADVILYEDDHILVLNKPSGTAVHGGSGLSFGVIEGLRALRPEARFLELVHRLDRDTSGVLLVAKKRSALRSLHEQLREKGMQKDYLALVRGQWQSHVKSVQAPLLKNILQSGERIVRVSQEGKPSETRFKVEERYAFATLVRCSPVTGRTHQIRVHTQYAGHPIAFDDRYGDREFDRQLTEAGTGLNRLFLHAAALKFTHPGTGEVMRIEAPMDEGLKRCLQKLRNAR,soluble
17,AHHHHHHASAKWVCKICGYIYDEDAGDPDNGISPGTKFEELPDDWVCPICGAPKSEFEKLEDGSGTREIIIDCYLHDMCEGLNIMTVRGSAYLLVGQNVYPLIEGIVPPTLHFYIKEGYLDIYGFWRVEGEEHAAHIRVAIDKVHVVGTSIIVEPHGALENFDASVVIKLDASEKDLEQLKKIINEEKFWTKEEHGEVISTYLEKHLREKRKKKE,soluble
18,MPKSKSQKNKLRPRDSKGRFTPLAKAKRTVVSRSRSRSRSASRGARQSRSVGRPMSRRNSVRSISTHTAKSPSLVLVISGSPSPRRRRPSTRRSSSRRSVVRSVSRGSKGRRSSSRGSVYGRTGRSRSSKRSRSRSRPRTRSGSRSSSRSRSGSRRSSRRRSRHRSSSKARGRRASTAKKTPAKRRSRSRSQQKVKRSMSRKG,soluble
19,MGHHHHHHSHALKAGKTASGAGEVVRCLSEQSVAISRCAGGAGARLPALLDEQQVNVLLYDMNGCYSRLKELVPTLPQNRKVSKVEILQHVIDYIRDLQLELNSESEVGTPGGRGLPVRAPLSTLNGEISALTAEAACVPADDRILCR,not soluble
20,MNPEVTVLMSVYNDKNYLSESIESILNQTFENFEFLIINDASTDGSGELLEEYSKKDKRIRLIHNKNNRGLSYSLAEGVSLAKAPWIARMDADDVSFKDRLAVQMDHVKAHSELDILGSYVIDIDDKGNELEIRKVPTTHKEIANLIWTCPFIHPTVLFKKDSIIKAGSYDRNLRRRQDYDLWFRCLEAKLKFENIDKPLLYYRSTDDYYKKNNFKVQVQQAKMGFAGARRVKAKPIAYIGITVAFIKGILPYHIRKPLSQLLKKVDPRRALEHHHHHH,soluble
21,MKYGIVIFPPKRIQDFANSYRKRYDSHYALIPPHITLKYPFEADEEQIKKMAKELRRIAAETPPIPIKVTKFSSFYPTSNIIYLKVEPNDVLERLHEQLHSGLFAGKPEFVFVPHITIGRDLPGAEYADVYSQLKLQDVHFEETVDRFHLLYQLENGSWTVYETFIVGGKETV,soluble
22,MSGKEPLNPNPVIASGRKCRLKDSSDGIFRKGRDALEKTAFQAGILFARQRGGIGRAGKRTGGGSFMPSESPPLRLFAKKVGKGTYNPVQSSINI,not soluble
23,MGSDKIHHHHHHMSDDLGSELQLLYLFVHLVNAGSFSQAAKELDMPIATVSRKLAKLEEKLDKQLFMRSTRKLRLTEEGLALFQRYQSVIAQFDELSGVGSDKPEGTLRIAAPISIISIIFIRALNEFGRLYPDIRLHISQSNELVDLIDKGIDVAIVGGAQPDSSWVSSTLGELDYCLFATPEYLAQAPKLTHPNDLEAHQLIKVWPLFNWHLKHPNGESFYFNGPTKLTLTDLHGAIESALDHGGILYGPELFVKQQIKEDRLKVLLPEWVGEQRRISILYHQRSQQPLKVRVFIEFMQSKAPELFSMA,not soluble
24,MKEKEKIYRHLTEEEISVLEGNYCQCADWTMVEVADGFDANRCLHVMFSGQIRIGSTRGSHLLPGGLHVPTGINIARLHNCIVGDEVVIFHVNSYLANYRIGDYTRIENIDTIAVTESTSFGNGVEVTVLNETGGREVTITDNLTAQTAYLMAMYRHDKVLTESLAAMARAYAESRRSDMGAIGSHVVIHGCNTIENVCIGDYTEITGASHLCNGSINSKKEAPVSVGYNVVCRDFILCSGSSVTDGATVSHCFVGQGTHLGHLFSAHDSLFFANCQGENGEACAVFAGPYTVSMHK,not soluble
25,MSLQNAKLMLTCLAFAGLAALAGCSFPGVYKIDIQQGNVVTQDMIDQLRPGMTRRQVRFIMGNPLIVDTFHANRWDYLYSIQPGGGRRQQERVSLFFNDSDQLAGLNGDFMPGVSRDEAILGKEGSTTVTQPADQQKPEAQKEEPPKPGSTLEQLQREVDEAQPVPVPTPEPLDPSPQEGHHHHHH,soluble
